According to article PMC9584609:

Biological target: T1, Kir2.1 tagged with mVenus and PAmCherry (human), P63252
T1 chain: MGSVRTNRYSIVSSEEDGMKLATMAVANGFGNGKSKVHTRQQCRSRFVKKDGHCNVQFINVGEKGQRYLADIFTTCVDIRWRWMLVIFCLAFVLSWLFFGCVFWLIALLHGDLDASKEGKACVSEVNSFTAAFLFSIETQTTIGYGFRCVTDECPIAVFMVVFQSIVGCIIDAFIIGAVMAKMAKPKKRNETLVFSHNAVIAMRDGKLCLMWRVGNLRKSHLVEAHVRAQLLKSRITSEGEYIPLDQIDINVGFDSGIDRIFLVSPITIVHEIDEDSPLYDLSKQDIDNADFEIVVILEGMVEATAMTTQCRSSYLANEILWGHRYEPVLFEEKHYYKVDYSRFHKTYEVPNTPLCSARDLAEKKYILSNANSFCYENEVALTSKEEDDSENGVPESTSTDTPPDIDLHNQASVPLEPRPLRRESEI
Experiment: native gel or EMSA; high-resolution clear native electrophoresis (hrCNE); lysate of transfected HEK293T cells in 0.1 M sodium phosphate with 0.5% digitonin or 20 mM DDM; 4-14% acrylamide gradient gel run at 4 °C; mVenus fluorescence scanned; VGLUTs and sialin with and without PNGaseF
Settings: remark: other sources report otherwise

- stoichiometry N: 4
B1: Kir2.1 tagged with mVenus and PAmCherry, P63252 1-427 (natural protein)
chain: MGSVRTNRYSIVSSEEDGMKLATMAVANGFGNGKSKVHTRQQCRSRFVKKDGHCNVQFINVGEKGQRYLADIFTTCVDIRWRWMLVIFCLAFVLSWLFFGCVFWLIALLHGDLDASKEGKACVSEVNSFTAAFLFSIETQTTIGYGFRCVTDECPIAVFMVVFQSIVGCIIDAFIIGAVMAKMAKPKKRNETLVFSHNAVIAMRDGKLCLMWRVGNLRKSHLVEAHVRAQLLKSRITSEGEYIPLDQIDINVGFDSGIDRIFLVSPITIVHEIDEDSPLYDLSKQDIDNADFEIVVILEGMVEATAMTTQCRSSYLANEILWGHRYEPVLFEEKHYYKVDYSRFHKTYEVPNTPLCSARDLAEKKYILSNANSFCYENEVALTSKEEDDSENGVPESTSTDTPPDIDLHNQASVPLEPRPLRRESEI
